Results as given in patent US20250326818A1 (UNIVERSIT T BASEL, published 2025).
Numbering of substitutions follows the chain as printed.

Key:
Experiment in all cases: BLI (Octet), biotinylated CD123 ECD captured on streptavidin tips, hIL3 as analyte, level at 250 s normalised to loading
[1] = biological target: T1, CD123 ECD S59P (human, UniProt P26951 19-305)
T1 construct: Recombinant ECD
T1 sequence: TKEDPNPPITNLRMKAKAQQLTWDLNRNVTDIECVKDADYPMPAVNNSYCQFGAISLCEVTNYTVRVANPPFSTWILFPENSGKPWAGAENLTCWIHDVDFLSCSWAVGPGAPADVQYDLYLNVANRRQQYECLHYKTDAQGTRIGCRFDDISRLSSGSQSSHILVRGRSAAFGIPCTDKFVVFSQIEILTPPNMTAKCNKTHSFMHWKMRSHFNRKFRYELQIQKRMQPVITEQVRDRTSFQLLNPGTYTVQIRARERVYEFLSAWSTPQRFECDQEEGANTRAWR
Method: (§1) Binding of hIL3 (SinoBiological, PN: 11858-H08H) (analyte) to CD123 ECD wt. and variants (ligands) was performed using Streptavidin capture biosensor (SA) (Sartorius, PN: 18-5019). CD123 ECD wt. and variants were biotinylated using Biotinylation kit Type B (Abeam, PN: ab201796) following manufacturer instructions. Biotinylated CD123 ECD wt. and variants (ligands) were captured on SA tips for 1000 s to achieve a nm shift of 1.5 to 2 nm. Analyte hIL3 was titrated at 7 concentrations from 500 to 7.8 nM. Association to analyte was monitored for 300 s and dissociation for 120 s. Buffer only well was used as reference. No regeneration was performed, and a new set of tips was used for each biotinylated captured ligand. Data were analyzed using the Octet Data Analysis software HT 12.0. Due to the fast on/off nature of the interaction data were analyzed using Steady state analysis. Qualitative representation in FIG. 11 binding level were taken at 250 s association for all concentrations.

[2] = biological target: T2, CD123 ECD R84E (human, UniProt P26951 19-305)
T2 construct: Recombinant ECD
T2 sequence: T1 sequence with P41S, R66E
Method: as §1

[3] = biological target: T3, CD123 ECD S59F (human, UniProt P26951 19-305)
T3 construct: Recombinant ECD
T3 sequence: T1 sequence with P41F
Method: as §1

[4] = biological target: T4, CD123 ECD R84Q (human, UniProt P26951 19-305)
T4 construct: Recombinant ECD
T4 sequence: T1 sequence with P41S, R66Q
Method: as §1

[5] = biological target: T5, CD123 ECD E51T (human, UniProt P26951 19-305)
T5 construct: Recombinant ECD
T5 sequence: T1 sequence with E33T, P41S
Method: as §1

[6] = biological target: T6, CD123 ECD S59Y (human, UniProt P26951 19-305)
T6 construct: Recombinant ECD
T6 sequence: T1 sequence with P41Y
Method: as §1

- binding result [1]: binds
- binding result [2]: binds
- binding result [3]: binds
- binding result [4]: binds
- binding result [5]: binds
- binding result [6]: binds
B1: hIL3 (ligand, human, UniProt P08700 20-152, looked up)
chain: APMTQTTPLKTSWVNCSNMIDEIITHLKQPPLPLLDFNNLNGEDQDILMENNLRRPNLEAFNRAVKSLQNASAIESILKNLLPCLPLATAAPTRHPIHIKDGDWNEFRRKLTFYLKTLENAQAQQTTLSLAIF
notes: also called Interleukin-3
